Biological target: the molecule itself
Test: AUC; purified protein dialysed against 50 mM Tris-HCl pH 7; OD280 of 1 (printed as 0.1 μM protein); 40,000 rpm, 20°C; 200 scans; analysed with Sedfit; monomer to dimer

B1: EvgS-Cyt (entire cytoplasmic region of the Escherichia coli histidine kinase EvgS, residues 553 to 1193) (domain or fragment, UniProt P30855 553-1193, looked up)
chain: WGFYLLRSVRRRKVIQGDLENQISFRKALSDSLPNPTYVVNWQGNVISHNSAFEHYFTADYYKNAMLPLENSDSPFKDVFSNAHEVTAETKENRTIYTQVFEIDNGIEKRCINHWHTLCNLPASDNAVYICGWQDITETRDLINALEVEKNKAIKATVAKSQFLATMSHEIRTPISSIMGFLELLSGSGLSKEQRVEAISLAYATGQSLLGLIGEILDVDKIESGNYQLQPQWVDIPTLVQNTCHSFGAIAASKSIALSCSSTFPEHYLVKIDPQAFKQVLSNLLSNALKFTTEGAVKITTSLGHIDDNHAVIKMTIMDSGSGLSQEEQQQLFKRYSQTSAGRQQTGSGLGLMICKELIKNMQGDLSLESHPGIGTTFTITIPVEISQQVATVEAKAEQPITLPEKLSILIADDHPTNRLLLKRQLNLLGYDVDEATDGVQALHKVSMQHYDLLITDVNMPNMDGFELTRKLREQNSSLPIWGLTANAQANEREKGLSCGMNLCLFKPLTLDVLKTHLSQLHQVAHIAPQYRHLDIEALKNNTANDLQLMQEILMTFQHETHKDLPAAFQALEAGDNRTFHQCIHRIHGAANILNLQKLINISHQLEITPVSDDSKPEILQLLNSVKEHIAELDQEIAVFC
notes: EvgS sensor histidine kinase, Escherichia coli, cytoplasmic domains comprising amino acid residues 553 to 1193; expected monomer mass printed as 72.3 kDa; Amplified from pBADEvgS and cloned NdeI-HindIII into a modified pET41c in which the GST tag is replaced by a C-terminal His8 tag; By the forward primer a start methionine precedes R553 (ATGCGCTCAGTTCGTCGTCGT); No cleavage of the tag is …
- stoichiometry N: 2

From paper PMC5573083, “Structural and Functional Analysis of the Escherichia coli Acid-Sensing Histidine Kinase EvgS” (Journal of Bacteriology, 2017)
